According to US20230242601A1, “PEPTIDE USED TO PREVENT OR TREAT SYNUCLEINOPATHY” (TOHOKU UNIVERSITY, priority 2020, published 2023):
Where no end group is shown, it is not given here.

Assays:
[1] = biological target: FABP3 (Homo sapiens, UniProt P05413); assay: QCM (quartz crystal microbalance) binding analysis of immobilized FABP3 with α-synuclein or its peptides; details: for binding to FABP3: His-tagged FABP3 immobilized, 2.5-20 nM analyte, 50 mM Tris-HCl pH 7.4, 25° C.; for binding affinity for FABP3 compared with the natural sequence (SynP130-140), in words / binding affinity for FABP3 relative to the natural sequence (SynP130-140): immobilized FABP3
Procedure: The substrate was washed with purified water, then 500 μL of a Ni solution (20 mM HEPES-NaOFH buffer, pH 7.5, 150 mM NaCl, 50 mM EDTA, 10 mM NiSO4) was added, and the substrate was allowed to stand at room temperature for 10 minutes. The substrate was washed with purified water, then 100 nM of FABP3 fused with a His-tag at the N-terminus diluted with a 50 mM Tris-HCl pH 7.4 was added to a quartz sensor and treated for one minute to be immobilized. […] The measurement was performed in a 500 μL liquid under conditions of 25° C. and 1000 rpm for three minutes. After the measurement, Kd, kon, and koff were each calculated with AQUA 2.0 software (Initium).
FABP3 and various mutants of SynP130-140 were interacted in the same manner as in Example 1. The measurement was performed by adding each peptide at any concentration to the immobilized FABP3.
The detailed experimental method is as described in the method of Example 1.

[2] = biological target: α-synuclein and FABP3 (Syn-FABP3 complex) (Homo sapiens, UniProt P05413); assay: Thioflavin T fluorescence / TEM observation of α-synuclein amyloid fibril formation with FABP3 and peptide; assay type: biochemical
Procedure: An ARVO X4 (Perkin Elmer) was used for shaking and measuring fluorescence values over time in the fibril formation process of Syn. For the measurement, the samples were added to a 96-well plate (8×12-well plate; Greiner, Kremsmuenster, Austria) to give 150 μL/well, and the fluorescence (Ex of 440 nm and Em of 486 nm) was measured every 15 minutes while the well plate was continuously shaken at 37° C. […] Samples after 1800 minutes obtained after the measurement were measured with a transmission electron microscope (TEM) (JEOL JEM-1400 Plus). To a collodion membrane (400 mesh; Nisshin EM, Tokyo, Japan), 10 μL of the sample was added and allowed to stand at room temperature for two minutes, then washed with 5 μL of purified water, stained with 5 μL of a 10% EM stain solution for one minute, and then washed with 5 μL of purified water. This was air-dried overnight and then measured.
The thio-T measurement and the measurement with a TEM were performed in the same manner as in Example 3.
The thio-T measurement and the measurement with a TEM were performed in the same manner as in Example 3. The Thio-T measurement was performed for samples to each of which SynP130-140 was added at the beginning (0 hour), after 3 hours, 8 hours, or 24 hours.

[3] = tested on: cultured dopaminergic nerve cells; assay: Antagonistic effect of C-terminal peptide on uptake of ATTO-550-labeled α-synuclein monomer into cultured dopaminergic nerves; assay type: cell-based, mouse; details: 1 μM peptide with 1 μM ATTO-550-labeled α-synuclein monomer, 48 hours; p<0.0001 vs control
Procedure: Cultured dopaminergic nerves were prepared according to the method (Kawahata et al. 2019) already described. Specifically, the uterus was aseptically removed from a C57BL6N mouse on day 15.5 of pregnancy by abdominal midline incision under deep isoflurane anesthesia, and the fetal mesencephalon was removed in ice-cold Hank's balanced salt solution (HBSS) under a stereomicroscope. The tissue was then dispersed by treatment with a nerve cell suspension (Sumitomo Bakelite) at 37° C. for 30 minutes, the dispersion was centrifuged at 1000 rpm for 5 minutes, and then the supernatant was discarded. The cell pellet was dispersed, then a removal solution (Sumitomo Bakelite) was added, and the mixture was centrifuged at 900 rpm for 5 minutes. The supernatant was then removed, the pellet was suspended in Eagle's minimal essential medium (EMEM) and seeded on a poly-L-lysine-coated chamber plate (Iwaki). […] Values are mean±SEM (n>20), and one-way ANOVA with Tukey test was performed for all the groups. The conceptual diagram of the synthesized α-synuclein is illustrated in C.

Chain of α-synuclein and FABP3 (Syn-FABP3 complex) (P05413 whole entry, species assumed, one chain of several): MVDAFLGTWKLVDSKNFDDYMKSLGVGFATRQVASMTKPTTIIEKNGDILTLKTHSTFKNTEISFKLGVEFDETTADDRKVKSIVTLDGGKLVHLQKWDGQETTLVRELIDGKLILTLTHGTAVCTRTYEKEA
Chain of FABP3 (P05413 2-133 limits assumed): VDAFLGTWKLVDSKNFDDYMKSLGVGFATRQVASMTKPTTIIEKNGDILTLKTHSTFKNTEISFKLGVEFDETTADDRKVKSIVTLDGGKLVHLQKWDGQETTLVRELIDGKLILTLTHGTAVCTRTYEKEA

SynP130-140: peptide of the C-terminal region of human α-synuclein composed of the 130th to 140th amino acids (EEGYQDYEPEA; partial peptide of alpha-synuclein)
affinity for FABP3 compared with Syn [1]: stronger affinity for FABP3
binding to FABP3 ([1]; QCM): bound to FABP3 in a dose dependent manner
amyloid fibril aggregate formation of α-synuclein ([2]; FABP3, α-synuclein and peptide added simultaneously, 1:1:1 molar ratio (69 μM each), Thio-T, 37° C.): forms amyloid tibril aggregates
release of Syn from the Syn-FABP3 complex and amyloid fibril formation ([2]; equimolar peptide added to the preformed 1:1 complex at 0, 3, 8 or 24 hours): releases Syn from FABP3

Y136W: peptide in which the 136th tyrosine in SynP130-140 was replaced by tryptophan (EEGYQDWEPEA)
binding affinity for FABP3 compared with the natural sequence (SynP130-140), in words ([1]; QCM): about the same affinity

FABP3: fatty acid-binding protein 3
aggregation of synuclein on adding FABP3 alone ([2]; equimolar FABP3 added to α-synuclein, no peptide, Thio-T): completely suppressed the aggregation of synuclein

EEGFQDYEPEA [Y133F]
Kd ([1]; QCM, binding to FABP3): 100 pM
binding affinity for FABP3 relative to the natural sequence (SynP130-140) ([1]; QCM): two-fold stronger
amyloid aggregate formation of α-synuclein, concentration dependence ([2]; peptide at 0.1, 0.5 or 1 equivalent to 69 μM α-synuclein and 69 μM FABP3): preferentially binds to FABP3 in a dose-dependent manner

Y133F/Y136W: SynP130-140 mutant with tyrosine 133 changed to phenylalanine and tyrosine 136 changed to tryptophan (EEGFQDWEPEA)
binding affinity for FABP3 compared with the natural sequence (SynP130-140), in words ([1]; QCM): failed to further strengthen the binding affinity

EGYQDYEPEA [10aa]
intracellular uptake of fluorescently labeled α-synuclein (ATTO fluorescence intensity) [3]: inhibited the intracellular uptake

Y136F: SynP130-140 mutant in which tyrosine at position 136 was changed to phenylalanine (EEGYQDFEPEA)
binding affinity for FABP3 compared with the natural sequence (SynP130-140), in words ([1]; QCM): about the same affinity

Y133W/Y136W: peptide in which the 133rd and 136th tyrosines in SynP130-140 were replaced by tryptophans (EEGWQDWEPEA)
binding affinity for FABP3 compared with the natural sequence (SynP130-140), in words ([1]; QCM): did not change the binding affinity

SynP73-96: peptide of the NAC region of human α-synuclein, 73th to 96th amino acids [reference compound]
binding to FABP3 ([1]; QCM): hardly bound to FABP3

Y133F/Y136F: SynP130-140 mutant in which tyrosine at position 133 and position 136 were both changed to phenylalanine (EEGFQDFEPEA)
binding affinity for FABP3 relative to the natural sequence (SynP130-140) ([1]; QCM): 2 fold

SynP2-10: peptide of the N-terminal region of human α-synuclein, second to tenth amino acids (DVFMKGLSKA; partial peptide of alpha-synuclein) [reference compound]
binding to FABP3 ([1]; QCM): hardly bound to FABP3
